Measured values published in paper PMC4167235.

Target: secretory phospholipase A2 (sPLA2) from Crotalus durissus terrificus (Crotalus durissus terrificus) (UniProt P62022)
Assay: MALDI-TOF mass spectrometry

secretory phospholipase A2 (sPLA2) from Crotalus durissus terrificus (from UniProt P62022 17-138) (enzyme)
stoichiometry N: 2
